Source: patent US20150031601A1

molecular target: serum proteins; experiment: 90% serum, 30 kDa ultrafiltration, HPLC

Binder | Protein binding (%)
GFCWNVCVYRNGVRVCHRRCR [SEQ ID NO: 289] | 83%
GFCWYWCVYRNGVRVCYRRCN [SEQ ID NO: 20] | 99%
GFCWNVCVKRNGVRVCHRRCN [SEQ ID NO: 305] | 76%
GFCWNVCVYRNGVRVCHRRCK [SEQ ID NO: 284] | 72%
GFCWNWCVYRNGVRVCHRRCN [SEQ ID NO: 267] | 85%
GFCWNVCFYRNGVRVCHRRCN [SEQ ID NO: 272] | 74%
GFCWRVCVYRNGARKCYRRCN [SEQ ID NO: 313] | 98%
GFCWNVCVYRNGVRVCHRRCH [SEQ ID NO: 282] | 82%
GFCWRVCVYRNGVRKCHRRCN [SEQ ID NO: 315] | 93%
GFCWNVCLYRNGVRVCHRRCN [SEQ ID NO: 275] | 80%

Results, then the binder that gave them:

Protein binding (%) | Binder
94% | GFCWNVCVRRNGVRVCHRRCN [SEQ ID NO: 308]
66% | GFCWNVCVYRNGVRVCHRRCG [SEQ ID NO: 281]
43% | GFCWNVCVHRNGVRVCHRRCN [SEQ ID NO: 303]
80% | GFCWNLCVYRNGVRVCHRRCN [SEQ ID NO: 263]
99% | GFCWNVCVYRNGVRVCHRRCW [SEQ ID NO: 291]
74% | GFCWNVCVARNGVRVCHRRCN [SEQ ID NO: 299]
